Results taken from the supplement of paper PMC10724198.
± gives the standard deviation of the averaged measurements.

Test system: Saccharomyces cerevisiae
Experiment: protein stability index of tFT-peptide fusion (C-terminal peptide) (PSI (0-1 scale)); higher = more stable (slower turnover)
Conditions: genetic background: wild type; temperature: 30 C
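Further: PSI is a weighted mean of sequencing reads over stability bins, variants kept only with over 10 reads, mCherry proximal and sfGFP distal, peptide attached via GGGS linker.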

Sequence	protein stability index
RITSSLCPPLLR	0.695 ± 0.013
RKDNRRIMIKKR	0.648 ± 0.015
RKGFMQRHDTLD	0.6749 ± 0.0019
RKGVSLAILLGP	0.67 ± 0.055
RKKDHKSIIQII	0.57779 ± 0.00015
RKKKRKKKKTER	0.647 ± 0.041
RKKNEKKEDNKK	0.747 ± 0.12
RKKREKREKETN	0.598 ± 0.026
RKKTQQKTQNIQ	0.67 ± 0.024
RKNGEDLKKRGT	0.726 ± 0.077
RKNHPEKKKKPN	0.673 ± 0.024
RKNIKYNTKNSI	0.654 ± 0.03
RKQNVASESERK	0.752 ± 0.094
RKQQGDNHKGRG	0.706 ± 0.14
RKQRAGRRKDKQ	0.734 ± 0.043
RKRIPSITLPPP	0.754 ± 0.063
RKRKEKSLKAKL	0.784 ± 0.084
RKTHTRTQKRKL	0.675 ± 0.01
RKTKIKKLGRDK	0.644 ± 0.1
RKTRKKNRIRGI	0.6857 ± 0.0054
RLAVQCVCQIGI	0.621 ± 0.019
RLDDFSALPPRY	0.781 ± 0.064
RLDFFIFSRWWI	0.727 ± 0.031
RLFASNPALSNL	0.709 ± 0.027
RLFHYPPPRHSY	0.61 ± 0.043
RLFSAWGCGLPL	0.7 ± 0.019

Sequence	protein stability index
RLGGRDCWGPWG	0.693 ± 0.017
RLGGRGRGSIHS	0.652 ± 0.022
RLGVTVPLSGTV	0.5342 ± 0.00099
RLGWGGVGVAGV	0.683 ± 0.013
RLHAILKRSGLE	0.722 ± 0.068
RLHCEGCDPGSL	0.7189 ± 0.0015
RLIDMNFPVKKE	0.709 ± 0.04
RLLFPTLTAYLL	0.63 ± 0.029
RLLPAPPPPTRP	0.693 ± 0.036
RLLRLLTALPPL	0.6387 ± 0.0026
RLLVGFLSPFSC	0.713 ± 0.031
RLPASGTPAYSE	0.67 ± 0.02
RLPAVPSHPGLL	0.729 ± 0.037
RLPFLPPPPCPP	0.716 ± 0.046
RLPHCLRPPLSP	0.669 ± 0.069
RLPLYAIPPFPP	0.636 ± 0.0091
RLRCRYLSSTYY	0.712 ± 0.0078
RLRDMPRDLTFW	0.706 ± 0.12
RLRGGVPGRTVG	0.68 ± 0.078
RLRPGGHPCVFF	0.66 ± 0.041
RLRPRHPRLLRS	0.735 ± 0.034
RLSPLTLPFCTS	0.645 ± 0.06
RLSPPGFRLGLF	0.517 ± 0.029
RLSRPPRIPRSQ	0.654 ± 0.0087
RLTLAFQKRSPP	0.668 ± 0.1
RLTRRSCLFSIT	0.785 ± 0.056

Sequence	protein stability index
RLVAGETWAMSR	0.674 ± 0.0045
RMDIRVWATFCG	0.705 ± 0.11
RMEGCRLSLGVP	0.63 ± 0.075
RMGQQISSVRLF	0.679 ± 0.0082
RMKKKKNKARDI	0.729 ± 0.045
RMRTGTKCLSAG	0.705 ± 0.17
RNCSSALPPPPS	0.7154 ± 0.0028
RNERNAKAKNEK	0.649 ± 0.012
RNHHPHHVPTSR	0.667 ± 0.03
RNNKLGIRKSFL	0.69 ± 0.035
RNRGPAIRVRRK	0.635 ± 0.089
RNTPTATHHTTG	0.681 ± 0.026
RNVFVPFMRGSP	0.737 ± 0.077
RPAFPIPSLYPS	0.725 ± 0.11
RPAIPPATPPPP	0.649 ± 0.027
RPALRPSPPLSP	0.682 ± 0.056
RPCPGPLPPPPP	0.662 ± 0.013
RPDSGFPLRGSS	0.75 ± 0.098
RPFSAPLCLLPS	0.7 ± 0.024
RPFSMGSNNIIR	0.7 ± 0.022
RPGRSDRCLRWS	0.673 ± 0.017
RPGWSRGREAVA	0.735 ± 0.14
RPHEAPTPGPVR	0.646 ± 0.013
RPHVLAHSLLLS	0.584 ± 0.011
RPLLVPVSSTPP	0.716 ± 0.045
RPLYPGSKVQLL	0.691 ± 0.024

Sequence	protein stability index
RPNQNAFACMSP	0.702 ± 0.026
RPPPLLSPPSPP	0.718 ± 0.026
RPPPPASPPSAP	0.588 ± 0.076
RPPPPSPRPTRR	0.755 ± 0.032
RPPRNLDPSVSI	0.646 ± 0.13
RPPSPPLPPPLS	0.6906 ± 0.0013
RPRLQNLSRSNV	0.74 ± 0.074
RPSHSPAFSAFF	0.681 ± 0.024
RPSLPPSPLLRP	0.729 ± 0.0049
RPSPLPALASSL	0.65 ± 0.037
RPSPPPLRPFVL	0.576 ± 0.025
RPSTRARPKPTP	0.693 ± 0.0086
RPTLPGGSPYYS	0.75 ± 0.05
RPTTPKCSSPKP	0.753 ± 0.11
RPTTTQPPPTAS	0.62 ± 0.022
RPVPPPLPSPPP	0.702 ± 0.016
RPVSALESPQAG	0.727 ± 0.059
RQCAACLGNPST	0.665 ± 0.1
RQFRKKNTLKSE	0.65 ± 0.1
RQGGTMVRLLGY	0.651 ± 0.089
RQIPAQAVKHVL	0.588 ± 0.02
RQKEVSISYCWI	0.646 ± 0.12
RQLSSFSDRSGS	0.715 ± 0.022
RQSITIAQPGRP	0.643 ± 0.014
RQSREGKANRRW	0.742 ± 0.049
RQVSRLFQGKKN	0.707 ± 0.03

Sequence	protein stability index
RRAESRNEKQHS	0.687 ± 0.017
RRAGHYHYSVRL	0.704 ± 0.053
RRAVLDSPSRRY	0.786 ± 0.031
RRDIIMTKKTLH	0.658 ± 0.069
RRGRNGGKADLR	0.657 ± 0.0073
RRGTEGLGGGVG	0.6265 ± 0.0052
RRHNPARSRARG	0.686 ± 0.053
RRIFTLIARRLW	0.672 ± 0.013
RRKSEYAYNTKN	0.565 ± 0.036
RRLRWQNKIIGI	0.868 ± 0.13
RRLVGEEGRTHV	0.638 ± 0.05
RRNESHAGGRGP	0.778 ± 0.07
RRPAQDAEPIQP	0.661 ± 0.067
RRRGTYTYSLLL	0.73 ± 0.014
RRRKGTKNMQSK	0.727 ± 0.061
RRRMVYPLPPTL	0.641 ± 0.052
RRRPSPKASILS	0.719 ± 0.011
RRRSGAPVMRGS	0.645 ± 0.074
RRSASRQFLLNP	0.73264 ± 0.00024
RRSENHTEHKGD	0.712 ± 0.032
RRSLKIQKNMKR	0.686 ± 0.083
RRSPYLPRILTP	0.661 ± 0.023
RRSVSSRGCLFR	0.7 ± 0.008
RRTGTFSGLAGL	0.696 ± 0.0071
RRTYERRVATSR	0.691 ± 0.031
RRVDVRKGRLTP	0.753 ± 0.096

Sequence	protein stability index
RRVKRGGARKEA	0.654 ± 0.019
RRVRTTKKGLTI	0.7266 ± 0.0036
RRYWVLSTVPVL	0.615 ± 0.028
RSCAGGVGAVFF	0.758 ± 0.055
RSCFLSLFFFGF	0.653 ± 0.036
RSEIKKPIVIKT	0.576 ± 0.045
RSFGRVVSCSGC	0.6993 ± 0.0056
RSGGDGCRALSV	0.708 ± 0.064
RSGSVGGMECHV	0.7 ± 0.18
RSHPPPPVSRSP	0.651 ± 0.045
RSHPRQSGLRTA	0.652 ± 0.039
RSKDEKNKIGYK	0.683 ± 0.044
RSPKGKKRVGKW	0.714 ± 0.039
RSPPPFLSIFPL	0.745 ± 0.01
RSPSFLRSFPAL	0.686 ± 0.016
RSRGSTKLKNLI	0.817 ± 0.056
RSRKKKERWKTE	0.707 ± 0.015
RSRRPALVLSGN	0.729 ± 0.011
RSRRRFPPPPPI	0.672 ± 0.062
RSSCVRGVTLAL	0.695 ± 0.023
RSSEVQADRMCQ	0.668 ± 0.025
RSSFCGVRAWLA	0.704 ± 0.078
RSSKCRGQKGLG	0.687 ± 0.014
RSSLSGLPPLPP	0.721 ± 0.14
RSSPVPLSCRKG	0.66 ± 0.037
RSVPPSSPPPYF	0.699 ± 0.037

Sequence	protein stability index
RSVWVGGVTNLG	0.657 ± 0.063
RSWISGVRPSYP	0.75 ± 0.036
RTCPSPSAHLRL	0.741 ± 0.0085
RTECRCCVGEVG	0.656 ± 0.069
RTKIEIKNRENI	0.774 ± 0.12
RTKMKERTCEEG	0.697 ± 0.02
RTLNILCGGALR	0.691 ± 0.049
RTLPFPHAGLLF	0.6816 ± 0.0061
RTPPCLTPLEET	0.713 ± 0.037
RTQRGRMGGEQG	0.762 ± 0.12
RTRPALPSPPPH	0.725 ± 0.022
RTRSKVSVSFND	0.728 ± 0.043
RTSKRKKSDARK	0.784 ± 0.022
RTTDPHNRPIRP	0.6552 ± 0.0047
RTWNSIESRKIK	0.706 ± 0.074
RVANCGDGSIAV	0.652 ± 0.053
RVAPITARLAPH	0.859 ± 0.12
RVCKALKNDNLI	0.73 ± 0.07
RVGGGRDVRGGG	0.723 ± 0.042
RVGQDGFRVAGC	0.594 ± 0.12
RVISIIREQEPV	0.677 ± 0.034
RVKFIEQASRFV	0.764 ± 0.12
RVPPGSPYPPLL	0.7319 ± 0.0028
RVPVSQHARTRN	0.6744 ± 0.0055
RVQFYVGSPALR	0.69684 ± 0.00031
RVQLTLKGTGVT	0.629 ± 0.029

Sequence	protein stability index
RVRGEHKLIGRA	0.652 ± 0.034
RVRQQKIFPSLD	0.7057 ± 0.0062
RVSACVDGHVFL	0.643 ± 0.0071
RVSTIEAEINLR	0.708 ± 0.012
RVSVFILGWFRD	0.532 ± 0.018
RVSVSWDDGVMV	0.652 ± 0.0088
RVWQGRDGTVMK	0.659 ± 0.019
RVYKTAYNRRTQ	0.832 ± 0.021
RVYYPSGVKCRL	0.671 ± 0.033
RWAVYDKNRETP	0.657 ± 0.05
RWGGVVRGCSGG	0.687 ± 0.036
RWGVRFWVGDSV	0.687 ± 0.017
RWHLCERFGGRV	0.643 ± 0.1
RWLEIQKRRGRI	0.643 ± 0.1
RWPPPPPELPPP	0.655 ± 0.039
RWREGWGGFSLG	0.665 ± 0.025
RWVRGDVFQGFC	0.693 ± 0.052
RYAGGHRIGFLI	0.649 ± 0.025
RYLDPPLPLPRT	0.6921 ± 0.0046
RYNRMVERALKY	0.677 ± 0.027
